According to patent US20250277054A1 (WUXI BIOLOGICS IRELAND, published 2025):
Like-named read-outs stand apart in the source and are kept apart here.

What was measured:
[1] = biological target: T1, human PSMA on human prostate cancer cells (LNCaP, C4-2, 22Rv1) (human, UniProt Q04609 1-750); experiment: flow cytometry on C4-2 cells (PSMA high)
T1 construct: whole, on cells; also called human PSMA-expressing LNCaP cells; C4-2 (PSMA High)
Experimental: (§1) After washing twice with 1×PBS/1% BSA/0.1 mM EDTA, Alexa fluor 647-labeled goat anti-human IgG Fc (at 1:500 dilution) was added and the plate was incubated at 4° C. for half an hour in dark. After washing twice with 1×PBS/1% BSA/0.1 mM EDTA, cells were re-suspended in 1×PBS/1% BSA/0.1 mM EDTA, and mean fluorescence intensity (MFI) was measured by a flow cytometer and analyzed by FLOWJO. The binding EC₅₀ was calculated by GraphPad Prism 7 software by plotting antibody concentration (x-axis) versus […] (y-axis) and analyzing as: Nonlinear regression (curve fit)-log (agonist) vs. response-Variable slope (four parameters).

[2] = biological target: T2, Human CD3δ & CD3ε heterodimer protein (Flag & His Tag) (human, UniProt P04234 22-105; P07766 23-126); experiment: SPR (Biacore 8K), antibody captured by anti-human IgG Fc, CD3δ & CD3ε heterodimer injected, 1:1 model
T2 construct: Bought heterodimer with Flag and His tags
T2 sequence (P04234 22-105, stated change not applied, form in doubt, chain 1 of 2): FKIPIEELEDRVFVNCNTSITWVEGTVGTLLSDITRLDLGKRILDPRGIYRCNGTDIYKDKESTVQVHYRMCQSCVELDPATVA
T2 sequence (P07766 23-126, stated change not applied, form in doubt, chain 2 of 2): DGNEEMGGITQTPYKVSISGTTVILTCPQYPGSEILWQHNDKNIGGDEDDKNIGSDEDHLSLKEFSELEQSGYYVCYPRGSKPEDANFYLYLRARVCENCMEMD
Experimental: Each antibody was captured on an anti-human IgG Fc antibody immobilized CM5 sensor chip (Cytiva). human CD3δ & CD3ε heterodimer at different concentrations were injected over the sensor chip at a flow rate of 30 μL/min for an association phase of 120 s, followed by 240 s dissociation. The chip was regenerated by 10 mM glycine (pH 1.5) after each binding cycle.
The sensorgrams of blank surface and buffer channel were subtracted from the test sensorgrams. The experimental data was fitted by 1:1 binding model. Molecular weight of 31 kDa was used to calculate the molar concentration of human CD3δ & CD3ε heterodimer.

[3] = biological target: T1, human PSMA on human prostate cancer …; experiment: flow cytometry on 22Rv1 cells (PSMA low)
Experimental: as §1

[4] = biological target: T3, Human PSMA.ECD.His (Acro) (human, UniProt Q04609 44-750); experiment: ELISA, coated human PSMA protein (His tag)
T3 construct: extracellular domain; Bought protein with His tag; also called human PSMA ECD protein; Human PSMA/FOLH1 protein, His tag
T3 sequence (Q04609 44-750): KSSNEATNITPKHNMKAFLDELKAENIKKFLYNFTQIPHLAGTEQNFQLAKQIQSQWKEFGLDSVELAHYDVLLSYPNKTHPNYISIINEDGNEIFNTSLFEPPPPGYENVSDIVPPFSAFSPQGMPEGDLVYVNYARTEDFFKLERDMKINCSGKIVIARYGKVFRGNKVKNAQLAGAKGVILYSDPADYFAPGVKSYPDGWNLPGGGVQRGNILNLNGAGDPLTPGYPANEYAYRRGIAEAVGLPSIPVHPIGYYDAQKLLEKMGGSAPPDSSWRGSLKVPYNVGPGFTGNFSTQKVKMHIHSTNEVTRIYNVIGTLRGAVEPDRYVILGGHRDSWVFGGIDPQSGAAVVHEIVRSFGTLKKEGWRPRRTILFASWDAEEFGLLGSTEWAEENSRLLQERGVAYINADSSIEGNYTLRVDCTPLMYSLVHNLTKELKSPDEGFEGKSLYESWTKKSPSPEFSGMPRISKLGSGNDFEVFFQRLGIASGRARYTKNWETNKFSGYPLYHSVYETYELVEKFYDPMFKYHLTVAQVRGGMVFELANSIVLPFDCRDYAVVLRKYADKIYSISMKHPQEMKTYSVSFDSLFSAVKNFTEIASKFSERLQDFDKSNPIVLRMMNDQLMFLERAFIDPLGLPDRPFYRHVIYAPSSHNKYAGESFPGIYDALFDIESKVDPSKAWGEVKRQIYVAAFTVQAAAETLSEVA
Experimental: (§2) Briefly, 1 μg/mL human PSMA protein (His tag) were coated onto wells in ELISA plate in coating buffer at 4° C. for 16 hours. After washing the plate with 1×PBST once, the plate was blocked by using 200 μL/well 2% BSA for one hour. After washing the plate for three times with 1×PBST, various concentrations of antibodies diluted in 2% BSA (5-fold serially diluted from 200 nM to 0.004096 pM) were added to the wells and the plate was incubated for one hour at ambient temperature. After washing the plate three times with 1×PBST, Goat anti-human-IgG-Fc-HRP (at 1:5000 dilution) was added into wells and incubated for one hour. After washing six times with 1×PBST, 100 μL/well of TMB substrate solution was added into wells and incubated for 5 minutes in dark and then 100 μL/well of 2M HCl was added into wells to stop the reaction. The relative light unit (RLU) was measured at OD₄₅₀ and OD₅₄₀ by SPECTRAMAX M5E. The binding EC₅₀ was calculated by GraphPad Prism 7 software by plotting antibody concentration (x-axis) versus OD₄₅₀₋₅₄₀ (y-axis) and analyzing as: Nonlinear regression (curve fit)-log (agonist) vs. response-Variable slope (four parameters).

[5] = biological target: T4, full-length cynomolgus PSMA on Flp-in CHO cells (WBP3xx042-FlpinCHO.cPro1.B7) (cynomolgus, UniProt A0A2K5VNZ0 1-750); experiment: flow cytometry on FlpInCHO-cyno PSMA cells
T4 construct: whole, on cells; also called Cyno PSMA+ CHO cells; FlpInCHO-cyno PSMA
Experimental: WBP3xx042-FlpinCHO.cPro1.B7 (5×10⁴ cells) was incubated with various concentrations of antibodies 4° C. for one hour. After washing twice with 1×PBS/1% BSA/0.1 mM EDTA, secondary antibody, Alexa fluor 647-labeled goat anti-human IgG Fc, was added and the plate was incubated at 4° C. for half an hour in dark. After washing twice with 1×PBS/1% BSA/0.1 mM EDTA, cells were re-suspended in 1×PBS/1% BSA/0.1 mM EDTA. MFI and EC₅₀ were determined as described above.

[6] = biological target: T1, human PSMA on human prostate cancer …; experiment: cell-based or functional assay
[7] = biological target: T5, Cyno PSMA.ECD.His (Acro) (cynomolgus, UniProt A0A2K5VNZ0 44-750); experiment: ELISA, coated cynomolgus PSMA protein (His tag)
T5 construct: extracellular domain; Bought protein with His tag; also called cynomolgus PSMA ECD protein; Cynomolgus PSMA/FOLH1 protein, His tag
Experimental: (§3) Briefly, 1 μg/mL cynomolgus PSMA protein (His tag) and 2 μg/mL mouse PSMA protein (His tag) were coated onto wells in an ELISA plate in coating buffer at 4° C. for 16 hours. After washing plate with 1×PBST once, the plate was blocked by using 200 μL/well 2% BSA for one hour. […] After washing three times with 1×PBST, Goat anti-human-IgG-Fc-HRP (at 1:5000 dilution) was added and incubated for one hour. After washing six times with 1×PBST, 100 μL/well of TMB substrate solution was added into wells and incubated for 5 minutes in dark and then 100 μL/well of 2M HCL were added into wells to stop the reaction. The relative light unit (RLU) was measured at OD₄₅₀ and OD₅₄₀ by SPECTRAMAX M5E. EC₅₀ was determined as described above.

[8] = biological target: T6, Mouse PSMA.ECD.His (Acro) (mouse, UniProt O35409 45-752); experiment: ELISA, coated mouse PSMA protein (His tag)
T6 construct: extracellular domain; Bought protein with His tag; also called mouse PSMA protein (His tag); Mouse PSMA/FOLH1 protein, His tag
T6 sequence (O35409 45-752): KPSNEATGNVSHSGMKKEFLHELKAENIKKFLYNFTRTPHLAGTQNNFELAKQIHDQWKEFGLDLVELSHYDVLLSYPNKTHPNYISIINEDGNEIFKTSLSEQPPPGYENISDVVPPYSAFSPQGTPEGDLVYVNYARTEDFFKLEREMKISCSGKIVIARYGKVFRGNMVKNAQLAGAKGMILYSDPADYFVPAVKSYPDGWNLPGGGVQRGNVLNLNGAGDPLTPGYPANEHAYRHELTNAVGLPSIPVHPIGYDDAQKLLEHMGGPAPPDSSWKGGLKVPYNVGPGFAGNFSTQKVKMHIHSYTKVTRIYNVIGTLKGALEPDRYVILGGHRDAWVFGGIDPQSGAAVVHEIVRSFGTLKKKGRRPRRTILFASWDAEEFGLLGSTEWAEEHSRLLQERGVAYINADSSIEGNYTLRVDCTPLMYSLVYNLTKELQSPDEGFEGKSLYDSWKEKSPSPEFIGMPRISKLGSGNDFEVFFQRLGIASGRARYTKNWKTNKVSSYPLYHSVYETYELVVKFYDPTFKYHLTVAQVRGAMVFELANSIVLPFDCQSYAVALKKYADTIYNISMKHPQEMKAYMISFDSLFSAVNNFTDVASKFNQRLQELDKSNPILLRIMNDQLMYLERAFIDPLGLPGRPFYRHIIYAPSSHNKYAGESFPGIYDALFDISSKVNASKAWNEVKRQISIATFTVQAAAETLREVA
Experimental: as §3

[9] = biological target: T1, human PSMA on human prostate cancer …; experiment: flow cytometry on LNCaP cells (PSMA high)
Experimental: as §1

[10] = biological target: T5, Cyno PSMA.ECD.His (Acro); experiment: ELISA, coated cynomolgus PSMA protein (His tag); remark: listed apart in the source
Experimental: as §3

[11] = biological target: T3, Human PSMA.ECD.His (Acro); experiment: ELISA, coated human PSMA protein (His tag); remark: listed apart in the source
Experimental: as §2

[12] = biological target: T7, Biotinylated Human PSMA/FOLH1 Protein, His, Avitag (human, UniProt Q04609 44-750, biotin label (Avitag)); experiment: SPR (Biacore 8K), biotinylated human PSMA captured on streptavidin chip, antibody injected, single-cycle, 1:1 model
T7 construct: Bought protein; also called Human PSMA Protein (His Tag & biotin label)
T7 sequence (Q04609 44-750 limits assumed): as the sequence (Q04609 44-750) above
Experimental: Biotinylated human PSMA was captured on a streptavidin-immobilized CM5 sensor chip (Cytiva). Antibodies at different concentrations were injected over the sensor chip in an injection type of single-cycle at a flow rate of 30 μL/min for an association phase of 180 s, followed by 600-3600 s dissociation. The chip was then regenerated by 10 mM glycine (pH1.5) at the last binding cycle.
The sensorgrams of the blank surface and buffer channel were subtracted from the test sensorgrams. The experimental data were fitted by 1:1 binding model.

[13] = biological target: T1, human PSMA on human prostate cancer …; experiment: cell-based or functional assay; remark: listed apart in the source

T1 sequence (Q04609 whole entry): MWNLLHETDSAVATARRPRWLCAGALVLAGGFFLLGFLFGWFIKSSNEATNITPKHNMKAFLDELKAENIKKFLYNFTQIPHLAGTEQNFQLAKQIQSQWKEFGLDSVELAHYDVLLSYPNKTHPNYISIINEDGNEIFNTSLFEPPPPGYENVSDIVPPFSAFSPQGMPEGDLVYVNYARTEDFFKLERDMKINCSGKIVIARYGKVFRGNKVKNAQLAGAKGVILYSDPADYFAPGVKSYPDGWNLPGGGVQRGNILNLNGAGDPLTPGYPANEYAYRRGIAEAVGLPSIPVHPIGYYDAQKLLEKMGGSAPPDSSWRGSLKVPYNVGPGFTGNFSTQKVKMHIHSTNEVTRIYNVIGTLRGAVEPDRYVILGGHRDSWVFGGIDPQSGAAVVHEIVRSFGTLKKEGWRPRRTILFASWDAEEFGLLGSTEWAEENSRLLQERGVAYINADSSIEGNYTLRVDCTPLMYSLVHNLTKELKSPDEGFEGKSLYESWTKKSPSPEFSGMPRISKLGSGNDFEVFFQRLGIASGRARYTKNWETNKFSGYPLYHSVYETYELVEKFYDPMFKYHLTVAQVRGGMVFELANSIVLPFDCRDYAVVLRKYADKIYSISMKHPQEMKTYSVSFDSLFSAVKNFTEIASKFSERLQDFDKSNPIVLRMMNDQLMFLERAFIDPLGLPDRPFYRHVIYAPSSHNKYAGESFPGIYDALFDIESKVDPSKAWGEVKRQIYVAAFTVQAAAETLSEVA

B1: W308051-T3U5.E17-61.uIgG4V322 (bispecific antibody)
heavy 1: QVQLVQSGAEVKKPGSSVKVSCKASGFAFTDYYIHWVRQAPGQGLEWMGWISPGNVNTKYNENFKGRVTITADKSTSTAYMELSSLRSEDTAVYYCARDGYSLYYFDYWGQGTLVTVLEDLKNVFPPEVAVFEPSECEISHTQKATLVCLATGFYPDHVELSWWVNGKEVHSGVCTDPQPLKEQPALQDSRYALSSRLRVSATFWQNPRNHFRCQVQFYGLSENDEWTQDRAKPVTQIVSAEAWGRYGPPCPPCPAPEAAGGPSVFLFPPKPKDTLMISRTPEVTCVVVDVSQEDPEVQFNWYVDGVEVHNAKTKPREEQFNSTYRVVSVLTVLHQDWLNGKEYKCKVSNKGLPSSIEKTISKAKGQPREPQVYTLPPCQEEMTKNQVSLWCLVKGFYPSDIAVEWESNGQPENNYKTTPPVLDSDGSFFLYSRLTVDKSRWQEGNVFSCSVMHEALHNHYTQKSLSLSLG
light 1: DIVMTQSPDSLAVSLGERATINCKSSQSLLNSRTRKNYLAWYQQKPGQPPKLLIYWASTRQSGVPDRFSGSGSGTDFTLTISSLQAEDVAVYYCTQSHTLRTFGGGTKVEIKPDIQNPDPAVYQLRDSKSSDKSVCLFTDFDSQTQVSQSKDSDVYITDKCVLDMRSMDFKSNSAVAWSQKSDFACANAFQNSIIPEDTFFCS
heavy 2: EVQLVQSGAEVKKPGESLKISCKASGYSFTTYWIGWVRQMPGKGLELMGIIYPYDSDTRYSPSFQGQVTISADKSINTAYLQWSSLKASDTAMYYCARITGGYLFDYWGQGILVTVSSASTKGPSVFPLAPCSRSTSESTAALGCLVKDYFPEPVTVSWNSGALTSGVHTFPAVLQSSGLYSLSSVVTVPSSSLGTKTYTCNVDHKPSNTKVDKRVESKYGPPCPPCPAPEAAGGPSVFLFPPKPKDTLMISRTPEVTCVVVDVSQEDPEVQFNWYVDGVEVHNAKTKPREEQFNSTYRVVSVLTVLHQDWLNGKEYKCKVSNKGLPSSIEKTISKAKGQPREPQVCTLPPSQEEMTKNQVSLSCAVKGFYPSDIAVEWESNGQPENNYKTTPPVLDSDGSFFLVSRLTVDKSRWQEGNVFSCSVMHEALHNHYTQKSLSLSLG
light 2: QSALTQPPSASGSPGQSVTISCTGTSSDVGGYNYVSWYQQHPGKAPKLMIYEVTKRPSGVPDRFSGSKSGNTASLTVSGLQAEDEADYYCTSYAGSNKYVFGTGTKVTVLGQPKAAPSVTLFPPSSEELQANKATLVCLISDFYPGAVTVAWKADSSPVKAGVETTTPSKQSNNKYAASSYLSLTPEQWKSHKSYSCQVTHEGSTVEKTVAPTECS
notes: CD3xPSMA bispecific; also called WBP308051
[1]
  EC50: 1.48 nM
[2]
  Kd: 60.2 nM
  koff: 0.0331 s⁻¹
  kon: 550000 M⁻¹ s⁻¹
[3]
  EC50: 0.29 nM
[4]
  EC50: 0.03 nM
[5]
  EC50: 3.2 nM
[6]
  IC50 of T cell cytotoxicity, CD3+ T + C4-2: 0.082 nM
  IC50 of T cell cytotoxicity, CD3+ T + LNCaP: 0.037 nM
[7]
  EC50: 0.045 nM
[8]
  EC50: 1.34 nM
[9]
  EC50: 0.58 nM
[10]
  EC50: 0.05 nM
[11]
  EC50: 0.027 nM
[12]
  Kd: 0.0158 nM
  koff: 1.39e-05 s⁻¹
  kon: 880000 M⁻¹ s⁻¹
[13]
  EC50 of IFN-γ release, CD3+ T + C4-2: ~0.16 nM
